B1: 8C10 antibody (antibody, V domains shown)
VH: EVQLVQSGAEVKKPGESLKISCKGSGYTFANYWIAWVRQMPGKGLEWMGIIYPGDSDTRYSPSFQGQVTISADKSFHTVYLQWSSLKASDTAIYFCASTSYYDFWSGYHRGREHYYYGMEVWGQGTTVIVSS
VL: TQSPATLSLSPGERVTLSCRASQSVYNYLAWYQQKPGQAPRLLIYDASNRATGIPARFSGSGSGTDFTLTISSLEPEDFAVYYCQLRRGTFGQGTKVEIKR
B2: 37B7 antibody (antibody, V domains shown)
VH: QVQLVQSGGEVKKPGASVKVSCKASGYTFTSSGINWVRQAPGQGLEWMGWINTYNGNTKYAQRLQGRVTMTTDTSTDTAYMELRSLRSDDTAVYYCARDGLNWGWGDYWGQGTLVTVSS
VL: TQSPSTLSASVGDRVIITCRASQSISSWLAWYQQKPGKAPKLLIYKASSLESGVPSRFSGSGSGTEFTLTISSLQPDDFASYYCQQCKGYPYTFGQGTKLEIKR
notes: also called antibody secreted by the 37B7 subculture

Experiments:
[1] = biological target: hCMV envelope glycoprotein B (gB) of hCMV strain VR1814 (hCMV strain VR1814); test: cell-based or functional assay
[2] = biological target: hCMV envelope glycoprotein B (gB) of hCMV strain AD169 (hCMV strain AD169, UniProt P06473 32-906); test: cell-based or functional assay
[3] = biological target: T1, recombinant autologous interstrain fusion antigen CG3 (hCMV strain AD169; hCMV strain Towne, UniProt P06473 27-84; P13201 27-84); test: ELISA of the subculture supernatant on the gB recombinant antigen (CG3)
T1 construct: domain: gB Antigenic Domain 2 (AD2); Antigen of the commercial gB(AD2) ELISA (Biotest, Cat. No. 807035; Rothe M et al., 2001); also called CG3 antigen; gB(AD2)

Binder | hCMV neutralizing activity, dose-response, HUVEC cells with hCMV strain VR1814 (1,000 PFU/reaction), IC50 [1] [µg/mL] | hCMV neutralizing activity, dose-response, HELF cells with hCMV strain AD169 (1,000 PFU/reaction), IC50 [2] [µg/mL] | binding result [3]
B1 | 0.67 | 0.82 | –
B2 | – | – | no binding
